B1: E3 SUMO-protein ligase PIAS4 (Homo sapiens), Q8N2W9 (parent)
chain: MAAELVEAKNMVMSFRVSDLQMLLGFVGRSKSGLKHELVTRALQLVQFDCSPELFKKIKELYETRYAKKNSEPAPQPHRPLDPLTMHSTYDRAGAVPRTPLAGPNIDYPVLYGKYLNGLGRLPAKTLKPEVRLVKLPFFNMLDELLKPTELVPQNNEKLQESPCIFALTPRQVELIRNSRELQPGVKAVQVVLRICYSDTSCPQEDQYPPNIAVKVNHSYCSVPGYYPSNKPGVEPKRPCRPINLTHLMYLSSATNRITVTWGNYGKSYSVALYLVRQLTSSELLQRLKTIGVKHPELCKALVKEKLRLDPDSEIATTGVRVSLICPLVKMRLSVPCRAETCAHLQCFDAVFYLQMNEKKPTWMCPVCDKPAPYDQLIIDGLLSKILSECEDADEIEYLVDGSWCPIRAEKERSCSPQGAILVLGPSDANGLLPAPSVNGSGALGSTGGGGPVGSMENGKPGADVVDLTLDSSSSSEDEEEEEEEEEDEDEEGPRPKRRCPFQKGLVPAC

The source of these data is IntAct's records for PubMed 19779455.

The variants in the assay derive from B1. The conditions noted are these: with parp1_human PARP1, P09874.
Chain of parp1_human PARP1, P09874 (P09874 whole entry): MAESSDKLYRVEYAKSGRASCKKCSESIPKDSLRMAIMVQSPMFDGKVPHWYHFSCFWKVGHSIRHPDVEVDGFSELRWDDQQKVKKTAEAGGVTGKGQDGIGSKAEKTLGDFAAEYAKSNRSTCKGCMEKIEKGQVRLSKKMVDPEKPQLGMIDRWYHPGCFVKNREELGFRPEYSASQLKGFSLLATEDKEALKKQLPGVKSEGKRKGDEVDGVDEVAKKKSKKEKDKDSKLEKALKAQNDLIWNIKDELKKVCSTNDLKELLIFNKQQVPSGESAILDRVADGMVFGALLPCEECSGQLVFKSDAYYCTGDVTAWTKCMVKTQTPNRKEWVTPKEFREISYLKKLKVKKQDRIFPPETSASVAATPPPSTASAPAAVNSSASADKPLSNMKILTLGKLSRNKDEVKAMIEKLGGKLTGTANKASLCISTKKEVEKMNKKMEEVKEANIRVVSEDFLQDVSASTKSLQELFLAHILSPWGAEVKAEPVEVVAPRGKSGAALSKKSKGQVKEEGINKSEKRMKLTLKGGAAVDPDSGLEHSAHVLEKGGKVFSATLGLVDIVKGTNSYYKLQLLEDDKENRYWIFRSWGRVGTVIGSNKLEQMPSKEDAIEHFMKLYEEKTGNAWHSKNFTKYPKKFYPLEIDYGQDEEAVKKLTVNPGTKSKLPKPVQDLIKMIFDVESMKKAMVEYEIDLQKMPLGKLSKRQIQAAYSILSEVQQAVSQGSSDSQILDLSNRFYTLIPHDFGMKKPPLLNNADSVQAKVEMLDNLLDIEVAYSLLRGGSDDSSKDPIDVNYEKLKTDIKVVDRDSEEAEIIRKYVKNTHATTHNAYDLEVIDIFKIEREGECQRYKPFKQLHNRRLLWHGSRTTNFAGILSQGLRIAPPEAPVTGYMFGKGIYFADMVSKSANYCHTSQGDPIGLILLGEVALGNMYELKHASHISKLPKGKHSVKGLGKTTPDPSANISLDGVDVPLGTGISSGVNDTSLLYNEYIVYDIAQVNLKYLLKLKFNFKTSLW
C342F: the “effect of a mutation on the interaction” value is on record as “disrupting interaction”.
